For this experiment, the system named is clade A PP2Cs. The experiment can be described thus: Yeast two-hybrid assay of PYL13 with clade A PP2Cs. It is filed as binding, Arabidopsis. The following applies: ABA-independent. The method, then:
To investigate how PYL13 may function in plants, the interaction between PYL13 and clade A PP2Cs in yeast two-hybrid assays was examined, as shown in FIG. 3. […] PYL13 binds strongly with ABI1, ABI2, PP2CA, and HAI2 but weakly with HAB1 and HAI1 (FIG. 3A). […] PYL13 fused to the GAL4-DNA-binding domain (BD) was used as […], and PP2Cs fused to the GAL4-activating domain (AD) were used as baits. Interaction was determined by growth assay on media lacking His and His/Ade in the presence and absence of ABA. Dilutions (10^−1, 10^−2, and 10^−3) of saturated cultures were spotted onto the plates, which were photographed after 5 days.

The text below walks through data of patent US9518268B2, “Drought tolerant transgenic plants and method of making same” (PURDUE RESEARCH FOUNDATION, priority 2013, dated 2016).

B1: PYL13: Arabidopsis thaliana PYR/PYL/RCAR family protein PYL13, SEQ ID NO: 1 (protein, listed as Arabidopsis thaliana)
chain: MESSKQKRCRSSVVETIEAPLPLVWSILRSFDKPQAYQRFVKSCTMRSGGGGGKGGEGKGSVRDVTLVSGFPADFSTERLEELDDESHVMVVSIIGGNHRLVNYKSKTKVVASPEDMAKKTVVVESYVVDVPEGTSEEDTIFFVDNIIRYNLTSLAKLTKKMMK
Take B1: the “binding in yeast two-hybrid assay” value (with ABI1, ABI2, PP2CA, and HAI2) is on record as “strongly”; the “binding in yeast two-hybrid assay” value (with HAB1 and HAI1) is “weakly”.
